# Source: patent US20080311130A1 (IMMUNE DISEASE INSTITUTE, published 2008)
# Positions count from the first letter of the chain named. Names may count otherwise.
# B1: soluble αL I domain mutant F292G, Asn-129 to Tyr-307 (receptor)
# chain: NVDLVFLFDGSMSLQPDEFQKILDFMKDVMKKLSNTSYQFAAVQFSTSYKTEFDFSDYVKWKDPDALLKHVKHMLLLTNTFGAINYVATEVFREELGARPDATKVLIIITDGEATDSGNIDAAKDIIRYIIGIGKHFQTKESQETLHKFASKPASEFVKILDTGEKLKDLFTELQKKIY
# B2: soluble αL I domain mutant F265S, Asn-129 to Tyr-307 (receptor)
# chain: B1 chain with F137S, G164F
# B3: soluble αL I domain mutant F292A, Asn-129 to Tyr-307 (receptor)
# chain: B1 chain with G164A
# B4: αL I domain clone m7 (F292S), yeast-displayed (receptor)
# chain: NVDLVFLFDGSMSLQPDEFQKILDFMKDVMKKLSNTSYQFAAVQFSTSYKTEFDFSDYVKWKDPDALLKHVKHMLLLTNTFGAINYVATEVFREELGARPDATKVLIIITDGEATDSGNIDAAKDIIRYIIGIGKHFQTKESQETLHKFASKPASEFVKILDTSEKLKDLFTELQKKIYVIEGTSKQDLT
# notes: yeast surface display; not shown: Aga2, linker and hemagglutinin tag of pCTCON; c-myc tag
# B5: αL I domain clone m1 (I258T), yeast-displayed (receptor)
# chain: B4 chain with I130T, S164F
# notes: as for B4
# B6: αL I domain clone m15 (F277L, I288T), yeast-displayed (receptor)
# chain: B4 chain with F149L, I160T, S164F
# notes: as for B4
# B7: αL I domain clone f9 (L295P), yeast-displayed (receptor)
# chain: B4 chain with S164F, L167P
# notes: as for B4
# B8: αL I domain clone m11 (L295P, Q303R), yeast-displayed (receptor)
# chain: B4 chain with S164F, L167P, Q175R
# notes: as for B4
# B9: αL I domain clone f5 (F292A), yeast-displayed (receptor)
# chain: B4 chain with S164A
# notes: as for B4
# B10: αL I domain clone m8 (F292S, P281E), yeast-displayed (receptor)
# chain: B4 chain with P153E
# notes: as for B4
# B11: αL I domain clone m2 (I258T, T267A, F277A), yeast-displayed (receptor)
# chain: B4 chain with I130T, T139A, F149A, S164F
# notes: as for B4
# B12: αL I domain clone m6 (F209Y, L289P), yeast-displayed (receptor)
# chain: B4 chain with F81Y, L161P, S164F
# notes: as for B4
# B13: αL I domain clone f10 (L295Q), yeast-displayed (receptor)
# chain: B4 chain with S164F, L167Q
# notes: as for B4
# B14: αL I domain clone m12 (I150T, G246V, F299L, I309T), yeast-displayed (receptor)
# chain: B4 chain with I22T, G118V, S164F, F171L, I181T
# notes: as for B4
# B15: αL I domain clone m12c (I309T), yeast-displayed (receptor)
# chain: B4 chain with S164F, I181T
# notes: as for B4
# B16: αL I domain clone f11 (L295W), yeast-displayed (receptor)
# chain: B4 chain with S164F, L167W
# notes: as for B4
# B17: αL I domain clone f8 (L295A), yeast-displayed (receptor)
# chain: B4 chain with S164F, L167A
# notes: as for B4
# B18: αL I domain clone f6 (F292G), yeast-displayed (receptor)
# chain: B4 chain with S164G
# notes: as for B4
# B19: αL I domain clone m14 (I288N), yeast-displayed (receptor)
# chain: B4 chain with I160N, S164F
# notes: as for B4
# B20: αL I domain clone m5 (L274I, S279T), yeast-displayed (receptor)
# chain: B4 chain with L146I, S151T, S164F
# notes: as for B4
# B21: αL I domain clone m13 (F265S), yeast-displayed (receptor)
# chain: B4 chain with F137S, S164F
# notes: as for B4
# B22: αL I domain clone f7 (F292P), yeast-displayed (receptor)
# chain: B4 chain with S164P
# notes: as for B4
# B23: αL I domain clone f3 (L289P), yeast-displayed (receptor)
# chain: B4 chain with L161P, S164F
# notes: as for B4
# B24: αL I domain clone m3 (G262E), yeast-displayed (receptor)
# chain: B4 chain with G134E, S164F
# notes: as for B4
# B25: αL I domain clone m5a (L274I), yeast-displayed (receptor)
# chain: B4 chain with L146I, S164F
# notes: as for B4
# B26: αL I domain clone f4 (L289W), yeast-displayed (receptor)
# chain: B4 chain with L161W, S164F
# notes: as for B4
# B27: αL I domain clone f2 (L289G), yeast-displayed (receptor)
# chain: B4 chain with L161G, S164F
# notes: as for B4
# B28: αL I domain clone m10 (F265L, E293G, K294E, K296E, V308I), yeast-displayed (receptor)
# chain: B4 chain with F137L, S164F, E165G, K166E, K168E, V180I
# notes: as for B4
# B29: αL I domain clone m4 (F134L, K252E, F265S), yeast-displayed (receptor)
# chain: B4 chain with F6L, K124E, F137S, S164F
# notes: as for B4
# B30: αL I domain clone m9 (F292S, Y177R, L204Q), yeast-displayed (receptor)
# chain: B4 chain with Y49R, L76Q
# notes: as for B4
# B31: αL I domain clone m15a (F277L), yeast-displayed (receptor)
# chain: B4 chain with F149L, S164F
# notes: as for B4
# B32: αL I domain clone m10b (E293G), yeast-displayed (receptor, not shown: large carriers; small tags and cut ends)
# chain: B4 chain with S164F, E165G
# B33: αL I domain clone f1 (L289A), yeast-displayed (receptor, not shown: large carriers; small tags and cut ends)
# chain: B4 chain with L161A, S164F
# Biological target: T1, ICAM-1-Fcγ (ICAM-1 residues of 1-480 fused to the Fc of human IgG, R&D Systems) (human, UniProt P05362 28-480)
# T1 construct: range 1-480; Bought (R&D Systems); also called ICAM-1-Fcγ chimera; not shown: Fc of human IgG
# Experiment: SPR (Biacore); wild-type value from a previous study
# T1 sequence (P05362 28-480 limits assumed, form in doubt): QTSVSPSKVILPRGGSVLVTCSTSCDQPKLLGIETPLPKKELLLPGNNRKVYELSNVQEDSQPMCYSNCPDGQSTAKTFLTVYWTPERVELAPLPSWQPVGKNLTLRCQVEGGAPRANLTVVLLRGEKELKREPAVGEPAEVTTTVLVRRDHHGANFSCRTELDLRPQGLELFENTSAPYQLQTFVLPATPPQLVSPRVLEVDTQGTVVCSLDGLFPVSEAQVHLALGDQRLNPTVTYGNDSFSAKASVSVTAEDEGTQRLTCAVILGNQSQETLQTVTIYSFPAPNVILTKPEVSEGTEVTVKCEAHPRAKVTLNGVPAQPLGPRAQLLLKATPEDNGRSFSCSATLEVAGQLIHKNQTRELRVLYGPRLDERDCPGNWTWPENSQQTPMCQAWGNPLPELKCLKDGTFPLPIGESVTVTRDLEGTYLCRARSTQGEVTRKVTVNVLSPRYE
fold decrease in dissociation-rate (against wild type),fold increase in affinity (against wild type),Binder
1000 fold,10000 fold,B1
1000 fold,10000 fold,B2
–,75 fold,B3

# Biological target: T1, ICAM-1-Fcγ (ICAM-1 residues of 1-480 …)
# Experiment: SPR (Biacore 3000), I domain injected over ICAM-1-Fcγ-coupled CM5 chip, 10 mM MgCl2
# Protocol: (§1) Mutant I domains (F265S, F292A, F292G, F265S/F292G, and HA) with residues of Asn-129 to Tyr-307 were expressed in Escherichia coli BL21 (DE3) (Novagen), refolded, and purified as described previously⁶. ICAM-1-Fcγ-coupled or mock-coupled CM5 sensor chip as control was prepared using the amine coupling kit (BIAcore, Piscataway, N.J.), as described previously³³. Surface plasmon resonance was measured using Biacore 3000. I domains were injected over the chip in 20 mM Tris HCl, pH 8.0, 150 mM NaCl, 10 mM MgCl₂, at a flow rate of 10 μl/min at room temperature.
# Several of the most activating mutants were expressed in Escherichia coli and refolded in order to measure the kinetics of binding to ICAM-1 by surface plasmon resonance (FIG. 2). Data are shown in Table 2, and for comparison are shown kinetics measured for the wild-type and disulfide-bonded IA and HA mutants in a previous study⁶, and for the same disulfide-bonded HA mutant in the current study.
# (§2) The values shown in the table are mean ± SD from three independent measurements. The parameters of kₒₙ, koff, and Kd were calculated by fitting the 1:1 Langmuir binding model to the Biacore sensogram. The values were from the previous studies ⁶.
Kd,koff,kon,Binder
119 nM,0.0019 s⁻¹,16000 M⁻¹ s⁻¹,B1
145 nM,0.0017 s⁻¹,11800 M⁻¹ s⁻¹,B2
20000 nM,0.19 s⁻¹,9500 M⁻¹ s⁻¹,B3

# Biological target: T1, ICAM-1-Fcγ (ICAM-1 residues of 1-480 …)
# Experiment: flow cytometry on yeast-displayed I domain, ICAM-1-Fcγ 10 µg/ml
# Protocol: Cells that were cultured only in SD-CAA or further induced in SG-CAA were harvested, washed with 100 μl of labeling buffer (PBS, 0.5% BSA, 10 mM MgCl₂), and then incubated with ligands at 10 μg/ml in 50 μl of the labeling buffer for 20 min with shaking at 30° C. in a 96-well V-bottom plate. Ligands used in this study were anti-c-myc antibody 9E10 (Santa Cruz Biotechnology, CA) and anti-hemagglutinin antibody 12CA5 (Roche Applied Science), αL I domain-specific antibodies TS1/22 and MEM83³², and ICAM-1-Fcγ (ICAM-1 residues of 1-480 fused to the Fc of human IgG, R&D Systems). After incubation with the primary ligands, cells were washed once in 100 μl of the labeling buffer and incubated with the fluorescence-conjugated secondary antibodies at 5 μg/ml in 50 μl of the labeling buffer for 20 min at 4° C. Finally, cells were washed once in 100 μl and suspended in 100 μl of the labeling buffer for flow cytometry (FACScan, BD Biosciences).
# A total of twenty-five yeast colonies were picked from SD-CAA plates from the libraries selected with ICAM-1-Fcγ. These clones were tested for binding of ICAM-1-Fcγ, and sequenced (Table 1). Of these, 15 had unique sequences and were designated as m1 to m15, and all bound ICAM-1 better than wild-type (Table 1). Five clones contained single mutations, and the remainder contained 2-5 mutations each (Table 1). From the clones containing multiple mutations, one to three residues were selected and independently tested as a single substitution (designated with a, b, or c suffix) or independently isolated from the ratchet residue library (see below).
row,ICAM-1 (% ASFI of HA),Binder
1,47 % ASFI of HA,B4
2,10 % ASFI of HA,B5
3,30 % ASFI of HA,B6
4,5 % ASFI of HA,B7
5,107 % ASFI of HA,B8
6,29 % ASFI of HA,B9
7,54 % ASFI of HA,B10
8,10 % ASFI of HA,B11
9,33 % ASFI of HA,B12
10,4 % ASFI of HA,B13
11,27 % ASFI of HA,B14
12,17 % ASFI of HA,B15
13,81 % ASFI of HA,B16
14,25 % ASFI of HA,B17
15,91 % ASFI of HA,B18
16,14 % ASFI of HA,B19
17,51 % ASFI of HA,B20
18,123 % ASFI of HA,B21
19,5 % ASFI of HA,B22
20,24 % ASFI of HA,B23
21,4 % ASFI of HA,B24
22,91 % ASFI of HA,B25
23,51 % ASFI of HA,B26
24,74 % ASFI of HA,B27
25,16 % ASFI of HA,B28
26,31 % ASFI of HA,B29
27,28 % ASFI of HA,B30
28,110 % ASFI of HA,B31

# Biological target: ICAM-1-Fcγ (ICAM-1 residues of 1-480 fused to the Fc of human IgG, R&D Systems) (human) (UniProt P05362)
# Experiment: as above
# Sequence of ICAM-1-Fcγ (ICAM-1 residues of 1-480 fused to the Fc of human IgG, R&D Systems) (human) (P05362 28-480 limits assumed): as the sequence (P05362 28-480 limits assumed, form in doubt) above
row,ICAM-1 (% ASFI of HA),Binder
1,4 % ASFI of HA,B32
2,1 % ASFI of HA,B33

# Biological target: T1, ICAM-1-Fcγ (ICAM-1 residues of 1-480 …)
# Experiment: SPR (Biacore)
# Protocol: Sensograms show the binding of the I domain mutants (F292A, F265S, F292G, and F265S/F292G) to ICAM-1-Fcγ-coated sensor chip. In all sensograms, the signals from the control surface, as described in Materials and Methods, were subtracted. I domain mutants were injected in a series of concentrations starting from 100 μM for F292A and 1 μM for F292G, F265S, and F265S/F292G, and the subsequent concentrations were by two-fold serial dilutions.
# as §1, §2
fold higher affinity compared to the F292A mutant,fold slower dissociation rate than the F292A mutant,Binder
170 fold,100 fold,B1
–,100 fold,B2
